Square brackets hold non-standard residues; d marks the D form. Ends that are not written are not given here. Hyp = O=C(O)[C@@H]1C[C@@H](O)CN1
Tests used:
Test in all cases: competitive ELISA
[1] = biological target: neoepitope peptide Asp-Gly-Pro-Ser-Gly-Ala-Glu-Gly-Pro-HyP-Gly-Pro-Gln-Gly (SEQ ID NO: 14) (hydroxyproline (HyP) at position 10 of the peptide (position 971))
[2] = biological target: T1, peptide Gly-Glu-Pro-Gly-Asp-Asp-Gly-Pro-Ser-Gly-Ala-Glu-Gly-Pro-HyP-Gly-Pro-Gln-Gly (SEQ ID NO: 17)
T1 peptide: GEPGDDGPSGAEGP[Hyp]GPQG

[3] = biological target: T2, neoepitope peptide Gly-Pro-Gln-Gly (SEQ ID NO: 15)
T2 peptide: GPQG

[4] = biological target: T3, peptide Gly-Pro-Pro-Gly-Pro-Gln-Gly-Leu-Ala-Gly-Gln-Arg (SEQ ID NO: 16)
T3 peptide: GPPGPQGLAGQR

[5] = biological target: T4, peptide Gly-Glu-Pro-Gly-Asp-Asp-Gly-Pro-Ser-Gly-Ala-Glu-Gly-Pro-Pro-Gly-Pro-Gln-Gly (SEQ ID NO: 18)
T4 peptide: GEPGDDGPSGAEGPPGPQG

B1: anti-neoepitope antibody 20A10 (antibody, V domains shown)
VH: QIQLVQSGPELKEPGETVRISCKASGYTFTKYGINWVKQAPGKGLEWMAWINTYSGMTTYADDFKGRFAFSLETSANTAYLQINHLKNDDTATYFCARSLGYDYGGFAYWGQGTLVTVSA
VL: DVLLTQTPLSLPVSLGDQAFISCRSGQTLVHDNENTYFHWYLQKPGQSPKLLIYKISNRFSGVPDRFSGSGSGTDFTLKISRVEPEDLGIYFCSQNTHVPFTFGSGTKLEIKR
Work on B1 yielded an IC50 [1] of 40 nM, an IC50 [2] of 20 nM and an IC50 [3] of 99000 nM. For the same binder, the IC50 [4] was 20200 nM and the IC50 [5] was 22 nM.

Source: patent US20120237948A1 (published 2012)
